From patent publication US11046771 (dated 2021) come the findings set out here.

In assay [1] the target is T1, HER2 (cell surface) (human, UniProt P04626). In words: FACS, A431 cells.
The target in assay [2] is T1, HER2 (cell surface). In words: FACS, AU565 cells.

B1: 098 (PC1014-098) (antibody, V domains shown)
VH: EVQLLESGGGLVQPGGSLRLSCAASGFTFSNYGMSWVRQAPGKGLEWVSAISGSAYSTYYADSVKGRFTISRDNSKNTLWLQMNSLRAEDTAVYYCAKAHYHGSGSYYTLFDYWGQGTLVTVSS
VL: DIQMTQSPSSLSASVGDRVTITCRASQGISSWLAWYQQKPEKAPKSLIYAASSLQSGVPSRFSGSGSGTDFTLTISSLQPEDFATYYCQQYNSYPYTFGQGTKLEIK
On to B1, for which the EC50 with HER2 (cell surface) [1] came out at 0.068 mg/L; in the assay with HER2 (cell surface) [2], 0.336 mg/L.
